In patent US20140087995A1 (published 2014):
Numbered stars: 1 amine (or outer) side, 2 acyl side, 3 side chain; on linkers, the order of the positions; unused ones are H or OH. Bridge positions count the residues as written; N and C are the ends. Side chains are listed from the residue outwards. Ends that are not written are not given here. * marks the point of attachment. C20 diacid = O=C(O)CCCCCCCCCCCCCCCCCCC(=O)*; C18 diacid = O=C(O)CCCCCCCCCCCCCCCCC(=O)*; C16 diacid = O=C(O)CCCCCCCCCCCCCCC(=O)*; γGlu = O=C(O)[C@H](CCC(=O)[*:2])N[*:1]

T1: human calcitonin receptor (human, UniProt P30988 25-474)
T1 construct: whole, on cells; Assay used cell membranes, not intact cells; also called hCTR; hCT
T1 sequence (looked up): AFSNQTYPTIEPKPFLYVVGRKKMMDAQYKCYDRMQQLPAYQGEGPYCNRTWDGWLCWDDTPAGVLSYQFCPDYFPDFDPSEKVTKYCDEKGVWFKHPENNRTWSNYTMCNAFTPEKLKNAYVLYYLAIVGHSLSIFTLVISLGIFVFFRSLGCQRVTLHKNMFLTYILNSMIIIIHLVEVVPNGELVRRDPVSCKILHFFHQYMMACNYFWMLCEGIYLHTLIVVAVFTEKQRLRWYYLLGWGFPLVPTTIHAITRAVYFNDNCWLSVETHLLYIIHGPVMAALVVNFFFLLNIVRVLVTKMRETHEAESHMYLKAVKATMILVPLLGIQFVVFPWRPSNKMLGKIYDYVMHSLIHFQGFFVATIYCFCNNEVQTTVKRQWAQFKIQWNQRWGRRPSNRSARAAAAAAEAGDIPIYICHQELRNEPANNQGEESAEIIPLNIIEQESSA

T2: human amylin receptor (amylin 3(a) receptor: human calcitonin receptor with RAMP-3) (human, UniProt P30988 25-474; O60896 24-148)
T2 construct: whole, on cells; Assay used cell membranes of the Amylin 3(a)/CRE-luc BHK cells, not intact cells; also called hAmylin-R; hAmylinR
T2 sequence (looked up) 1: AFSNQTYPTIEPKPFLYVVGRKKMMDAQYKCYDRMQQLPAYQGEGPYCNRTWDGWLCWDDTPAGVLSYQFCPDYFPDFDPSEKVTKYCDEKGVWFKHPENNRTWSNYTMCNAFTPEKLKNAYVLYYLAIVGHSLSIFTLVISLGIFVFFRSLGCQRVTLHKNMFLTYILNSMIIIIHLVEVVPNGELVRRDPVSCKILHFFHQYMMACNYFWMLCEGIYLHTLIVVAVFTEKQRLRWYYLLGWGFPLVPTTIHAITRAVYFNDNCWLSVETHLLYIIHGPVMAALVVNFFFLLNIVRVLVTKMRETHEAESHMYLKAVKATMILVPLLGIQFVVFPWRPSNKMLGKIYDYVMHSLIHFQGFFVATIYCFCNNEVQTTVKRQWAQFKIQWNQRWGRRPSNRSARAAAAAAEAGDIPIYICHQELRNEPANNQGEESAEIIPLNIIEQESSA
T2 sequence (looked up) 2: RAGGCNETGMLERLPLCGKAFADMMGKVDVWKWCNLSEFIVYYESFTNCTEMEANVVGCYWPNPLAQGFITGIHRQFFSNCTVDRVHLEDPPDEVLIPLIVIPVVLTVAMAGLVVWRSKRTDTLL


Legend:
[1] = biological target: T1, human calcitonin receptor; assay: ratio IC50 hCTR / IC50 hAmylin-R (reference: human amylin receptor), SPA competition assays
How it was run: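 Scintillation proximity competition binding on cell membranes at 35 ng/μL with SPA beads, in 50 mM Hepes pH 7.4, 1 mM CaCl2, 5 mM MgCl₂, 0.1% OA, 0.02% Tween20. Incubated 120 min at 25° C with shaking. IC₅₀ from one-site competition fit.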

[2] = biological target: T1, human calcitonin receptor; assay: SPA competition with 125I-calcitonin on membranes of BHK cells with human calcitonin receptor (Assay VII)
How it was run: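 BHK hCTR membranes 35 ng/μL + SPA beads 0.05 mg/well; buffer 50 mM Hepes pH 7.4, 1 mM CaCl2, 5 mM MgCl₂, 0.1% OA, 0.02% Tween20. 120 min, 25° C., shaking. Scintillation count; IC50 by one-site binding competition.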

[3] = biological target: T2, human amylin receptor (amylin 3(a) …); assay: SPA competition with 125I-rat amylin on membranes of BHK cells with human calcitonin receptor and RAMP-3 (Assay V)
How it was run: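 Membranes from BHK Amylin 3(a)/CRE-luc cells (35 ng/μL final) were mixed with SPA beads and test compounds in 50 mM Hepes pH 7.4 with 1 mM CaCl2, 5 mM MgCl₂, 0.1% OA and 0.02% Tween20. Incubation ran 120 min at 25° C with shaking; IC₅₀ came from one-site competition fitting.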

Ratio hCT/hAmylin binding [1]	IC50 [2] [nM]	IC50 [3] [nM]	Binder
18.5	10.8	0.58	K([γGlu-C16 diacid])CNTATCATQRLANFLRHSSPNFGAIPSSTNVGHNTY-NH2 (disulfide 2-7; N-terminus assumed; SMILES CC[C@H](C)[C@H](NC(=O)[C@H](C)NC(=O)CNC(=O)[C@H](Cc1ccccc1)NC(=O)[C@H](CC(N)=O)NC(=O)[C@@H]1CCCN1C(=O)[C@H](CO)NC(=O)[C@H](CO)NC(=O)[C@H](Cc1c[nH]cn1)NC(=O)[C@H](CCCNC(=N)N)NC(=O)[C@H](CC(C)C)NC(=O)[C@H](Cc1ccccc1)NC(=O)[C@H](CC(N)=O)NC(=O)[C@H](C)NC(=O)[C@H](CC(C)C)NC(=O)[C@H](CCCNC(=N)N)NC(=O)[C@H](CCC(N)=O)NC(=O)[C@@H](NC(=O)[C@H](C)NC(=O)[C@@H]1CSSC[C@H](NC(=O)[C@@H](N)CCCCNC(=O)CC[C@H](NC(=O)CCCCCCCCCCCCCCC(=O)O)C(=O)O)C(=O)N[C@@H](CC(N)=O)C(=O)N[C@@H]([C@@H](C)O)C(=O)N[C@@H](C)C(=O)N[C@@H]([C@@H](C)O)C(=O)N1)[C@@H](C)O)C(=O)N1CCC[C@H]1C(=O)N[C@@H](CO)C(=O)N[C@@H](CO)C(=O)N[C@H](C(=O)N[C@@H](CC(N)=O)C(=O)N[C@H](C(=O)NCC(=O)N[C@@H](Cc1c[nH]cn1)C(=O)N[C@@H](CC(N)=O)C(=O)N[C@H](C(=O)N[C@@H](Cc1ccc(O)cc1)C(N)=O)[C@@H](C)O)C(C)C)[C@@H](C)O) [N^ε1-[(4S)-4-carboxy-4-(15-carboxypentadecanoylamino)butanoyl]-[Arg17,Pro21,Pro27,His34]-h-amylin]
146	137	0.939	K([γGlu-C20 diacid])CNTATCATQRLARFLRHSSPNFGAIPSSTNVGSNTY-NH2 (disulfide 2-7; N-terminus assumed; SMILES CC[C@H](C)[C@H](NC(=O)[C@H](C)NC(=O)CNC(=O)[C@H](Cc1ccccc1)NC(=O)[C@H](CC(N)=O)NC(=O)[C@@H]1CCCN1C(=O)[C@H](CO)NC(=O)[C@H](CO)NC(=O)[C@H](Cc1c[nH]cn1)NC(=O)[C@H](CCCNC(=N)N)NC(=O)[C@H](CC(C)C)NC(=O)[C@H](Cc1ccccc1)NC(=O)[C@H](CCCNC(=N)N)NC(=O)[C@H](C)NC(=O)[C@H](CC(C)C)NC(=O)[C@H](CCCNC(=N)N)NC(=O)[C@H](CCC(N)=O)NC(=O)[C@@H](NC(=O)[C@H](C)NC(=O)[C@@H]1CSSC[C@H](NC(=O)[C@@H](N)CCCCNC(=O)CC[C@H](NC(=O)CCCCCCCCCCCCCCCCCCC(=O)O)C(=O)O)C(=O)N[C@@H](CC(N)=O)C(=O)N[C@@H]([C@@H](C)O)C(=O)N[C@@H](C)C(=O)N[C@@H]([C@@H](C)O)C(=O)N1)[C@@H](C)O)C(=O)N1CCC[C@H]1C(=O)N[C@@H](CO)C(=O)N[C@@H](CO)C(=O)N[C@H](C(=O)N[C@@H](CC(N)=O)C(=O)N[C@H](C(=O)NCC(=O)N[C@@H](CO)C(=O)N[C@@H](CC(N)=O)C(=O)N[C@H](C(=O)N[C@@H](Cc1ccc(O)cc1)C(N)=O)[C@@H](C)O)C(C)C)[C@@H](C)O, also called compound 83) [N^ε1-[(4S)-4-carboxy-4-(19-carboxynonadecanoylamino)butanoyl]-[Arg14,Arg17,Pro21,Pro27]-h-amylin]
59.4	22.7	0.382	K([γGlu-C18 diacid])CNTATCATQRLANFLRHSSPNFGAIPSSTNVGHNTY-NH2 (disulfide 2-7; N-terminus assumed; SMILES CC[C@H](C)[C@H](NC(=O)[C@H](C)NC(=O)CNC(=O)[C@H](Cc1ccccc1)NC(=O)[C@H](CC(N)=O)NC(=O)[C@@H]1CCCN1C(=O)[C@H](CO)NC(=O)[C@H](CO)NC(=O)[C@H](Cc1c[nH]cn1)NC(=O)[C@H](CCCNC(=N)N)NC(=O)[C@H](CC(C)C)NC(=O)[C@H](Cc1ccccc1)NC(=O)[C@H](CC(N)=O)NC(=O)[C@H](C)NC(=O)[C@H](CC(C)C)NC(=O)[C@H](CCCNC(=N)N)NC(=O)[C@H](CCC(N)=O)NC(=O)[C@@H](NC(=O)[C@H](C)NC(=O)[C@@H]1CSSC[C@H](NC(=O)[C@@H](N)CCCCNC(=O)CC[C@H](NC(=O)CCCCCCCCCCCCCCCCC(=O)O)C(=O)O)C(=O)N[C@@H](CC(N)=O)C(=O)N[C@@H]([C@@H](C)O)C(=O)N[C@@H](C)C(=O)N[C@@H]([C@@H](C)O)C(=O)N1)[C@@H](C)O)C(=O)N1CCC[C@H]1C(=O)N[C@@H](CO)C(=O)N[C@@H](CO)C(=O)N[C@H](C(=O)N[C@@H](CC(N)=O)C(=O)N[C@H](C(=O)NCC(=O)N[C@@H](Cc1c[nH]cn1)C(=O)N[C@@H](CC(N)=O)C(=O)N[C@H](C(=O)N[C@@H](Cc1ccc(O)cc1)C(N)=O)[C@@H](C)O)C(C)C)[C@@H](C)O) [N^ε1-[(4S)-4-carboxy-4-(17-carboxyheptadecanoylamino)butanoyl]-[Arg17,Pro21,Pro27,His34]-h-amylin]
101	17.8	0.176	K([γGlu-C20 diacid])CNTATCATQRLAAFLRHSSPNFGAIPSSTNVGHNTY-NH2 (disulfide 2-7; N-terminus assumed; SMILES CC[C@H](C)[C@H](NC(=O)[C@H](C)NC(=O)CNC(=O)[C@H](Cc1ccccc1)NC(=O)[C@H](CC(N)=O)NC(=O)[C@@H]1CCCN1C(=O)[C@H](CO)NC(=O)[C@H](CO)NC(=O)[C@H](Cc1c[nH]cn1)NC(=O)[C@H](CCCNC(=N)N)NC(=O)[C@H](CC(C)C)NC(=O)[C@H](Cc1ccccc1)NC(=O)[C@H](C)NC(=O)[C@H](C)NC(=O)[C@H](CC(C)C)NC(=O)[C@H](CCCNC(=N)N)NC(=O)[C@H](CCC(N)=O)NC(=O)[C@@H](NC(=O)[C@H](C)NC(=O)[C@@H]1CSSC[C@H](NC(=O)[C@@H](N)CCCCNC(=O)CC[C@H](NC(=O)CCCCCCCCCCCCCCCCCCC(=O)O)C(=O)O)C(=O)N[C@@H](CC(N)=O)C(=O)N[C@@H]([C@@H](C)O)C(=O)N[C@@H](C)C(=O)N[C@@H]([C@@H](C)O)C(=O)N1)[C@@H](C)O)C(=O)N1CCC[C@H]1C(=O)N[C@@H](CO)C(=O)N[C@@H](CO)C(=O)N[C@H](C(=O)N[C@@H](CC(N)=O)C(=O)N[C@H](C(=O)NCC(=O)N[C@@H](Cc1c[nH]cn1)C(=O)N[C@@H](CC(N)=O)C(=O)N[C@H](C(=O)N[C@@H](Cc1ccc(O)cc1)C(N)=O)[C@@H](C)O)C(C)C)[C@@H](C)O, also called compound 93)
46.3	6.86	0.148	K([γGlu-C20 diacid])CNTATCATQRLAAFLRHSSPNFGAIPSSTNVGPNTY-NH2 (disulfide 2-7; N-terminus assumed; SMILES CC[C@H](C)[C@H](NC(=O)[C@H](C)NC(=O)CNC(=O)[C@H](Cc1ccccc1)NC(=O)[C@H](CC(N)=O)NC(=O)[C@@H]1CCCN1C(=O)[C@H](CO)NC(=O)[C@H](CO)NC(=O)[C@H](Cc1c[nH]cn1)NC(=O)[C@H](CCCNC(=N)N)NC(=O)[C@H](CC(C)C)NC(=O)[C@H](Cc1ccccc1)NC(=O)[C@H](C)NC(=O)[C@H](C)NC(=O)[C@H](CC(C)C)NC(=O)[C@H](CCCNC(=N)N)NC(=O)[C@H](CCC(N)=O)NC(=O)[C@@H](NC(=O)[C@H](C)NC(=O)[C@@H]1CSSC[C@H](NC(=O)[C@@H](N)CCCCNC(=O)CC[C@H](NC(=O)CCCCCCCCCCCCCCCCCCC(=O)O)C(=O)O)C(=O)N[C@@H](CC(N)=O)C(=O)N[C@@H]([C@@H](C)O)C(=O)N[C@@H](C)C(=O)N[C@@H]([C@@H](C)O)C(=O)N1)[C@@H](C)O)C(=O)N1CCC[C@H]1C(=O)N[C@@H](CO)C(=O)N[C@@H](CO)C(=O)N[C@H](C(=O)N[C@@H](CC(N)=O)C(=O)N[C@H](C(=O)NCC(=O)N1CCC[C@H]1C(=O)N[C@@H](CC(N)=O)C(=O)N[C@H](C(=O)N[C@@H](Cc1ccc(O)cc1)C(N)=O)[C@@H](C)O)C(C)C)[C@@H](C)O, also called compound 94)
